Data taken from patent US12077763B2, “RNA-based control of powdery mildew” (Greenlight Biosciences, Inc., priority 2021, dated 2024).

B1: GS3352 (nucleic acid)
sense: UGUAGAGGUGAAGUAGGUGAAAGUUGAUUUGGCGAUGGUAGAGAUGAGUUACUAUUACUGAUAGAAGGUAAAUUUGAGUAAGAUUGCAAAUUUCUAUCAGACGCAGCUGACUGAUCAAGAGUUUGCUCUAAUAAGGAUCUUUCAUGAGCUGAAUGCGCAUAUGUCGGUGACAAAUUUUUGGGAUGAUCGAUAAAGAAUUUUUUGGUUGAAUAGUUGCGAGAGAUUCCAGGUUGUAUUGCAGGUGAUGAAGAAGCUGGUGAAGAAAUGUUGCUUGAGUUGUCAAAAUUGCUACUGUUUGAACCAUUUGUUUUUGCGGAAGGAUACGGGAGUGGUUUACCUUCUUUUGCCAUCCGAAAAACUGGAAGUAAAUCCUCUCUAAGUCGUGUAUAUUCGAAUGU
antisense: ACAUUCGAAUAUACACGACUUAGAGAGGAUUUACUUCCAGUUUUUCGGAUGGCAAAAGAAGGUAAACCACUCCCGUAUCCUUCCGCAAAAACAAAUGGUUCAAACAGUAGCAAUUUUGACAACUCAAGCAACAUUUCUUCACCAGCUUCUUCAUCACCUGCAAUACAACCUGGAAUCUCUCGCAACUAUUCAACCAAAAAAUUCUUUAUCGAUCAUCCCAAAAAUUUGUCACCGACAUAUGCGCAUUCAGCUCAUGAAAGAUCCUUAUUAGAGCAAACUCUUGAUCAGUCAGCUGCGUCUGAUAGAAAUUUGCAAUCUUACUCAAAUUUACCUUCUAUCAGUAAUAGUAACUCAUCUCUACCAUCGCCAAAUCAACUUUCACCUACUUCACCUCUACA
B2: GS3347 (nucleic acid)
sense: GUGAGUAUCAGGUGUAUAAAUAAAACGUAUAAAAAUGUGAUGUUAUAGAUCGACGGUCAAAGAUUUCUAGAGAUUGAGGUACUGGACAUUCCUUCUUCAACCCCUCAAGAAAUUGUUAAGUCGAAAGAUUAGUAAUUCUCAACUCUGAUUAAAAUAAUCGAUAUGUAUGAAGAUAAGCGAGAUGAAUUGAUAAUGUUGUCUAAAAUUUCGAAUUAUGAAUCUUUACAAAAGAGGGUGAGUUGUCGUAUGAUAAAAGGAGCCUGCUCCGAUCUAGAUAGAACACAGCAGGUAAAGUAGAAGUGAUAUCUGCGAGGAGCCUUGACACCAGCAAGGACUCAGUCCGAAGAGUACGAGUUGCUUUCUGGUUUGUUGAAUGAAAGAAGUAGAAAAAAAUAUAA
antisense: UUAUAUUUUUUUCUACUUCUUUCAUUCAACAAACCAGAAAGCAACUCGUACUCUUCGGACUGAGUCCUUGCUGGUGUCAAGGCUCCUCGCAGAUAUCACUUCUACUUUACCUGCUGUGUUCUAUCUAGAUCGGAGCAGGCUCCUUUUAUCAUACGACAACUCACCCUCUUUUGUAAAGAUUCAUAAUUCGAAAUUUUAGACAACAUUAUCAAUUCAUCUCGCUUAUCUUCAUACAUAUCGAUUAUUUUAAUCAGAGUUGAGAAUUACUAAUCUUUCGACUUAACAAUUUCUUGAGGGGUUGAAGAAGGAAUGUCCAGUACCUCAAUCUCUAGAAAUCUUUGACCGUCGAUCUAUAACAUCACAUUUUUAUACGUUUUAUUUAUACACCUGAUACUCAC
B3: GS1798: dsRNA trigger SEQ ID NO 192; gene target Tip elongation aberrant protein 1 (nucleic acid)
DNA: AAATGTGTACCACCTTCTTGATGTAATTCTGAACGCAGCCAAATCTCCCAAGTCAGATCCATCGTCAGCCCGTCCTCCAAAGACATACATCACATCGTCAACAATTGCTGCAGCATGACCTTCTCTTGGAACCGGTATATATCCTATGCAGTCCAAAAGAGTCCAGGAGTTCGGTATCGGATCATAACACCAAACATCGTTATACCATTGAAGACCATTTGTTCCGCCAAACAAGTAAAGCTTTTCATTATATGTCACAACTGAGTGATTTGTTCTAGCTGATGGTATTTGTCCTACTGGGGGTCCACCATCCTCACTATTTTTAATGAGAATTTCCCACCTGTTCGTAGGGACTTGCAAAAGATTCAAATCAAAAGCCACAAGGTCATTCATAAAATAACCCTCTACTTGCCCCCCGAATACGTAGATTTTAGACCCTAGTATATTGAGAGAATGACCATAACGCCCCGCGGGCCGTGGCCCGGCAGGTATAGCTCTGGACCATTGTCGGGTAGAGGTATTAAGTAAGTAAAGAGTTTCATCTAATACGTCAGAATCGTCCATTTTAGTATCCCCACCATATACAATAAAAGCATTT
B4: GS3346 (nucleic acid)
sense: GUAGAGUUGAGCUUGGCCCUAAUGGCGUAAAUAAGAUCCAUGAAGUGGGAAACCUUGCUCCUGAAGAACAAGGUCUUUUAAAAGCUGCUCUAGUUGAUUUGUUAAAGAAUAUCGAAAAAGGAAUCAAAUUUGUUAACCAGAACCCCGGUGAAUAAAUAAAAUGUUAUUCAAUUUACAAUCUGUUGUUUUUUGAUCGUGGAUACCUUGAUAUUCAGUAACGAGGGAGAAUCAUUCUCCUGUCCCAAAAAAGUACUAUCUACUAUCUUAAAUUUUAUGGAAUCUUGAAUUUGUCCAAUGUAUCAAUAGAAAAAUUCUUUCAAAUUACAAGUCAAAAGUAUUAUGAAAAUUAAAAAGGACUAAUCCUCUUACAUAGAUAUAUAUAAAUAUA
antisense: UAUAUUUAUAUAUAUCUAUGUAAGAGGAUUAGUCCUUUUUAAUUUUCAUAAUACUUUUGACUUGUAAUUUGAAAGAAUUUUUCUAUUGAUACAUUGGACAAAUUCAAGAUUCCAUAAAAUUUAAGAUAGUAGAUAGUACUUUUUUGGGACAGGAGAAUGAUUCUCCCUCGUUACUGAAUAUCAAGGUAUCCACGAUCAAAAAACAACAGAUUGUAAAUUGAAUAACAUUUUAUUUAUUCACCGGGGUUCUGGUUAACAAAUUUGAUUCCUUUUUCGAUAUUCUUUAACAAAUCAACUAGAGCAGCUUUUAAAAGACCUUGUUCUUCAGGAGCAAGGUUUCCCACUUCAUGGAUCUUAUUUACGCCAUUAGGGCCAAGCUCAACUCUAC
B5: GS3357 (nucleic acid)
sense: GAUCUGGUCGUGGUUUGCCGAAAAGAUUCUUCAUUCCUCCCGUUAUAAGAACGGUGAGUGAUAGUGAAAAGCUUAAUCCAAGCAAUCCAACGUGUAAUUCCCACAUUCUCCGAUGCCAUAUGGCAGAUCUAGGCGUUGACUUUGUAACCGUCGGUCCAGGAACAAGAACUAAGCAAAUAGCAAAAAUAACUAAUGCCGGAAUUAUAAAAGCAUAUAAUCCAAGCCAUCGUACCGAGACUUUUUCAUGUGUUUUAUAGGGAAAGCUGAUAUCUGGGUUCUCCAGCGAGAAGGGUCUUUUGUUUGGUACCCUCGAUCCAACAAAUAAUCCAAAAAAUGCACCAAAUAUAACUACCAGCCAAUCGACAACAUAUGAAAGUACUAGUUUUAAUGA
antisense: UCAUUAAAACUAGUACUUUCAUAUGUUGUCGAUUGGCUGGUAGUUAUAUUUGGUGCAUUUUUUGGAUUAUUUGUUGGAUCGAGGGUACCAAACAAAAGACCCUUCUCGCUGGAGAACCCAGAUAUCAGCUUUCCCUAUAAAACACAUGAAAAAGUCUCGGUACGAUGGCUUGGAUUAUAUGCUUUUAUAAUUCCGGCAUUAGUUAUUUUUGCUAUUUGCUUAGUUCUUGUUCCUGGACCGACGGUUACAAAGUCAACGCCUAGAUCUGCCAUAUGGCAUCGGAGAAUGUGGGAAUUACACGUUGGAUUGCUUGGAUUAAGCUUUUCACUAUCACUCACCGUUCUUAUAACGGGAGGAAUGAAGAAUCUUUUCGGCAAACCACGACCAGAUC
B6: GS3351 (nucleic acid)
sense: AAGAAACAGACAGAUGAUUUUAUCAUAUUUCAAGGUAUAUUUGAAUUUAGUGAAUCUAGUUUAAUAUAAUUUAAAUUUAUUCGAUUAUCACCAACCUAUGAAAAAAUCAUUUCAUCCCAAUUCCGACAUGAAUUUGUAGUGUCUGACAGGUUUGUUUAAAAACGAAGUGGUGUAAAGAACCAUCGAUUCUUUCCACUUAAAUAUCUCUCCUCUAAGGCUUUCUUAACCACUUUCUUGGCAUCCUCUCGCUGCGAUACUUCCUUGAAUGUUUCUGUAGAUAUUACGUUUUUAAGACCUUCUAAUUCGAGUGUGUAACGUGUUGGCAUAAUAUGAUUAUAAUUGAUAACUUUUAUAAAA
antisense: UUUUAUAAAAGUUAUCAAUUAUAAUCAUAUUAUGCCAACACGUUACACACUCGAAUUAGAAGGUCUUAAAAACGUAAUAUCUACAGAAACAUUCAAGGAAGUAUCGCAGCGAGAGGAUGCCAAGAAAGUGGUUAAGAAAGCCUUAGAGGAGAGAUAUUUAAGUGGAAAGAAUCGAUGGUUCUUUACACCACUUCGUUUUUAAACAAACCUGUCAGACACUACAAAUUCAUGUCGGAAUUGGGAUGAAAUGAUUUUUUCAUAGGUUGGUGAUAAUCGAAUAAAUUUAAAUUAUAUUAAACUAGAUUCACUAAAUUCAAAUAUACCUUGAAAUAUGAUAAAAUCAUCUGUCUGUUUCUU
B7: GS3356 (nucleic acid)
sense: CUGGGUGAGUUUUUCGUAACGUCGCUACUUUAUUAACUUGAUCUGCCGUGGAUUUUGGUUGUCUUGUAUCAAUCAAAAGGAGAGGAAGCUUCGGAAACUUCAUUAAAGAUCUUAUGAUUGGCUCCUUUGAAUAGUCGGGCCUCUGAAAUAUAACAGCUUUUCCUUGGGAGGCAACAGUGUUAUCUACUCCUGAAGGGUUUCCAUGGAUACAUAUUUCUCCUACAUAAGCCCACAUAUUAAUGCGGCUUAUUUGGGUAUGUGCUUCUUCAAUGGGUUGGUCCUCAUGAGGCCCAGAAAGCGCUCUUACCUGUAAUAAGAGCGCAGCAGCUAGACACACAGUAAUAGAUGCA
antisense: UGCAUCUAUUACUGUGUGUCUAGCUGCUGCGCUCUUAUUACAGGUAAGAGCGCUUUCUGGGCCUCAUGAGGACCAACCCAUUGAAGAAGCACAUACCCAAAUAAGCCGCAUUAAUAUGUGGGCUUAUGUAGGAGAAAUAUGUAUCCAUGGAAACCCUUCAGGAGUAGAUAACACUGUUGCCUCCCAAGGAAAAGCUGUUAUAUUUCAGAGGCCCGACUAUUCAAAGGAGCCAAUCAUAAGAUCUUUAAUGAAGUUUCCGAAGCUUCCUCUCCUUUUGAUUGAUACAAGACAACCAAAAUCCACGGCAGAUCAAGUUAAUAAAGUAGCGACGUUACGAAAAACUCACCCAG

These molecules were tested on E. necator (assay: Leaf disc assay, dry inoculum (settling tower), decrease in disease severity / hyphal growth (Example 2)). Conditions: decrease in disease severity (hyphal growth) relative to untreated control; time point 1 (untreated control hyphal growth ≥50%); value ± SE.

B1 and B2 are within error of each other in “% decrease =/− SE TP1” value: 6 ± 4% for the first, 2 ± 7% for the second.

First: B3
Second: B4
The “% decrease =/− SE TP1” value of the first is higher: 44 ± 4% for the first, 3 ± 6% for the second.

B5 and B6 are within error of each other in “% decrease =/− SE TP1” value: 9 ± 6% for the first, 4 ± 7% for the second.

For B7, the “% decrease =/− SE TP1” value was 5 ± 5%.

Same assay, conditions: decrease in disease severity (hyphal growth) relative to untreated control; time point 2; value ± SE

Compared with B3, B5 is lower in “% decrease =/− SE TP2” value: 47 ± 5% for the first, 7 ± 6% for the second.
